Consider 27 molecules from patent US20210355194A1 (TWIST BIOSCIENCE, published 2021).

Where a chain is given by its changes, count along the chain named.

First the molecules themselves.
B1: variant 6-76 (Fc fusion)
VHH: EVQLVESGGGLVQPGGSLRLSCAASGLAFDFDGMGWFRQAPGKEREGVAAINSGGSTYYADSVKGRFTISADNSKNTAYLQMNSLKPEDTAVYYCARFFRAHDYWGQGTLVTVSS
B2: variant 6-73 (Fc fusion)
VHH: EVQLVESGGGLVQPGGSLRLSCAASGHTFSGYAMGWFRQAPGKEREFVAVITREGSTYYADSVKGRFTISADNSKNTAYLQMNSLKPEDTAVYYCARLGGEGFDYWGQGTLVTVSS
B3: variant 6-24 (Fc fusion)
VHH: EVQLVESGGGLVQPGGSLRLSCAASGFTLDYYAMGWFRQAPGKEREFVAAINWSGDNTHYADSVKGRFTISADNSKNTAYLQMNSLKPEDTAVYYCARAPFYCTTTKCQDNYYYMDVWGQGTLVTVSS
B4: variant 6-32 (Fc fusion)
VHH: EVQLVESGGGLVQPGGSLRLSCAASGFTLDYYDMGWFRQAPGKEREFVALISWSGGSTYYADSVKGRFTISADNSKNTAYLQMNSLKPEDTAVYYCATDFYGWGTRERDAFDIWGQGTLVTVSS
B5: variant 6-2 (Fc fusion)
VHH: EVQLVESGGGLVQPGGSLRLSCAASGFTMSSSWMGWFRQAPGKEREFVTVISGVGTSYADSVKGRFTISADNSKNTAYLQMNSLKPEDTAVYYCARGPDSSGYGFDYWGQGTLVTVSS
B6: variant 5-47 (Fc fusion)
VHH: EVQLVESGGGLVQPGGSLRLSCAASGFTFGSYDMGWFRQAPGKEREFVTAINWSGARTAYADSVKGRFTISADNSKNTAYLQMNSLKPEDTAVYYCAARSVYSYEYNWGQGTLVTVSS
B7: variant 6-18 (Fc fusion)
VHH: EVQLVESGGGLVQPGGSLRLSCAASGLTFRNYAMGWFRQAPGKEREFIAGMMWSGGTTTYADSVKGRFTISADNSKNTAYLQMNSLKPEDTAVYYCAREGYYYDSSGYLNYFDYWGQGTLVTVSS
B8: variant 5-56 (Fc fusion)
VHH: EVQLVESGGGLVQPGGSLRLSCAASGRTFSSNMGWFRQAPGKEREFVARIFGGDRTLYADSVKGRFTISADNSKNTAYLQMNSLKPEDTAVYYCADINGDWGQGTLVTVSS
B9: variant 6-10 (Fc fusion)
VHH: EVQLVESGGGLVQPGGSLRLSCAASGSIASIHAMGWFRQAPGKEREFVAAISRSGGFGSYADSVKGRFTISADNSKNTAYLQMNSLKPEDTAVYYCARDDKYYDSSGYPAYFQHWGQGTLVTVSS
B10: variant 5-37 (Fc fusion)
VHH: EVQLVESGGGLVQPGGSLRLSCAASGSTFSINAMGWFRQAPGKEREFVGGISRSGATTNYADSVKGRFTISADNSKNTAYLQMNSLKPEDTAVYYCAADGVPEYSDYASGPVWGQGTLVTVSS
B11: variant 6-38 (Fc fusion)
VHH: EVQLVESGGGLVQPGGSLRLSCAASGNTFSGGFMGWFRQAPGKEREFVAVISSLSSKSYADSVKGRFTISADNSKNTAYLQMNSLKPEDTAVYYCAKVDSGYDYWGQGTLVTVSS
B12: variant 5-60 (Fc fusion)
VHH: EVQLVESGGGLVQPGGSLRLSCAASGRSFSSHRMGWFRQAPGKEREFVAAIMWSGSHRNYADSVKGRFTISADNSKNTAYLQMNSLKPEDTAVYYCAAIAYEEGVYRWDWGQGTLVTVSS
B13: 2-12 (antibody, V domains shown)
VH: EVQLLESGGGLVQPGGSLRLSCAASGFTFSDYPMNWVRQAPGKGLEWVSTISGSGGITFYADSVKGRFTISRDNSKNTLYLQMNSLRAEDTAVYYCVRHDEYSFDYWGQGTLVTVSS
VL: DIQMTQSPSSLSASVGDRVTITCRASQSIDNYLNWYQQKPGKAPKLLIYGVSALQSGVPSRFSGSGSGTDFTLTISSLQPEDFATYYCQQSHSAPPYFFGQGTKVEIK
notes: also called variant 2-12
B14: 2-5 (antibody, V domains shown)
VH: EVQLLESGGGLVQPGGSLRLSCAASGFTFSDFAMAWVRQAPGKGLEWVSAISGSGDITYYADSVKGRFTISRDNSKNTLYLQMNSLRAEDTAVYYCAREADGLHSPWHFDLWGQGTLVTVSS
VL: B13 VL with D30H, N31T, G50A, V51A, Q55A, H92Y, F98T
notes: also called variant 2-5
B15: 2-2 (antibody, V domains shown)
VH: EVQLLESGGGLVQPGGSLRLSCAASGFTFSRHAMNWVRQAPGKGLEWVSGISGSGDETYYADSVKGRFTISRDNSKNTLYLQMNSLRAEDTAVYYCARDLPASYYDSSGYYWHNGMDVWGQGTLVTVSS
VL: DIQMTQSPSSLSASVGDRVTITCRASQTINTYLNWYQQKPGKAPKLLIYSASTLQSGVPSRFSGSGSGTDFTLTISSLQPEDFATYYCQQSYSTFTFGQGTKVEIK
notes: also called variant 2-2
B16: 2-9 (antibody, V domains shown)
VH: EVQLLESGGGLVQPGGSLRLSCAASGFTFPRYAMSWVRQAPGKGLEWVSTISGSGSTTYYADSVKGRFTISRDNSKNTLYLQMNSLRAEDTAVYYCARLIDAFDIWGQGTLVTVSS
VL: DIQMTQSPSSLSASVGDRVTITCRASQRIGTYLNWYQQKPGKAPKLLIYAASNLEGGVPSRFSGSGSGTDFTLTISSLQPEDFATYYCQQNYSTTWTFGQGTKVEIK
notes: also called variant 2-9
B17: 2-4 (antibody, V domains shown)
VH: B14 VH
VL: B13 VL with N31T, G50A, V51A, Q55A, H92Y, F98T
notes: also called variant 2-4
B18: 2-8 (antibody, V domains shown)
VH: B14 VH
VL: B13 VL with N31T, G50A, V51A, Q55A, H92Y, F98T
notes: also called variant 2-8
B19: variant 2-12 (antibody, V domains shown)
VH: B13 VH
VL: B13 VL
B20: variant 2-4 (antibody, V domains shown)
VH: B14 VH
VL: B13 VL with N31T, G50A, V51A, Q55A, H92Y, F98T
B21: variant 2-8 (antibody, V domains shown)
VH: B14 VH
VL: B13 VL with N31T, G50A, V51A, Q55A, H92Y, F98T
B22: variant 2-5 (antibody, V domains shown)
VH: B14 VH
VL: B13 VL with D30H, N31T, G50A, V51A, Q55A, H92Y, F98T
B23: variant 2-13 (antibody, V domains shown)
VH: B13 VH with T50A, G56D, I57N, F59Y
VL: B13 VL with N31T, V51A, Q55E
B24: variant 3-10 (antibody, V domains shown)
VH: EVQLLESGGGLVQPGGSLRLSCAASGFTFRSHAMSWVRQAPGKGLEWVSSISGGGASTYYADSVKGRFTISRDNSKNTLYLQMNSLRAEDTAVYYCARVKYLTTSSGWPRPYFDNWGQGTLVTVSS
VL: DIQMTQSPSSLSASVGDRVTITCRASQSIRKYLNWYQQKPGKAPKLLIYASSTLQRGVPSRFSGSGSGTDFTLTISSLQPEDFATYYCQQSLSTPFTFGGGTKVEIK
B25: variant 2-2 (antibody, V domains shown)
VH: B15 VH
VL: B15 VL
B26: variant 2-9 (antibody, V domains shown)
VH: B16 VH
VL: B16 VL
B27: variant 2-1 (antibody, V domains shown)
VH: EVQLLESGGGLVQPGGSLRLSCAASGFTFSNYATDWVRQAPGKGLEWVSIISGSGGATYYADSVKGRFTISRDNSKNTLYLQMNSLRAEDTAVYYCAKGGYCSSDTCWWEYWLDPWGQGTLVTVSS
VL: DIQMTQSPSSLSASVGDRVTITCRASQSIHRFLNWYQQKPGKAPKLLIYAASNLHSGVPSRFSGSGSGTDFTLTISSLQPEDFATYYCQQSYGLPPTFGQGTKVEIK

The target of the first experiment is CV S-protein construct 6 trimer TP31001F (SARS-CoV-2, UniProt P0DTC2 14-1208). Nature of the experiment: SPR.
B1 showed a dissociation constant Kd of 1.77 nM.

Molecule B2 returned a Kd of 0.52 nM.

Molecule B3 showed a Kd of 0.2 nM.

In turn, B4 registered a Kd of 0.1 nM.

B5 registered a dissociation constant Kd of 1.2 nM.

Regarding B6, binding was put at a Kd of 0.7 nM.

Molecule B7 had a Kd of 5.3 nM.

With B8, the Kd is 2.77 nM.

In the case of B9, the affinity, expressed as Kd, was 0.6 nM.

With B10, binding was characterised by a dissociation constant (Kd) of 1.8 nM.

B11 showed a dissociation constant (Kd) of 0.5 nM.

B12: the Kd is 0.8 nM.

Another experiment has as its target T1, SARS-CoV-2 S protein trimer (SARS-CoV-2, UniProt P0DTC2 14-1208). Nature of the experiment: Carterra SPR, Fc capture, S trimer.
The molecule B13 yielded a Kd of 3.2 nM.

In turn, B14 returned a Kd of 90.2 nM.

In turn, B15 came in with a Kd of 0.8 nM.

As to B16, the Kd came out at 23600 nM.

The target in the next experiment is T1, SARS-CoV-2 S protein trimer. Description: Carterra SPR, DB format, S trimer.
B17 registered a Kd of 4340 nM.

As to B18, the equilibrium dissociation constant (Kd) was determined as 115 nM.

On to B13, for which binding was put at a Kd of 6.4 nM.

In the case of B15, the dissociation constant (Kd) came out at 1.2 nM.

Another experiment has as its target Acro COVID S1 (S1N-C82E8) (SARS-CoV-2, UniProt P0DTC2 16-685). Nature of the experiment: phage ELISA. On the technique in general: In an ELISA, binding on a coated surface is turned into a signal by an enzyme label.
For B19, the “specificity ELISA, fold over background” value came out at 39.8 fold over background.

On to B20, for which the “specificity ELISA, fold over background” value is 37.7 fold over background.

Consider B21, for which the “specificity ELISA, fold over background” value stood at 35.9 fold over background.

Turning to B22, the “specificity ELISA, fold over background” value turned out to be 38.3 fold over background.

Turning to B23, the “specificity ELISA, fold over background” value came out at 27.3 fold over background.

For B24, the “specificity ELISA, fold over background” value is 1.2 fold over background.

On to B25, for which the “specificity ELISA, fold over background” value was 39.4 fold over background.

As for B26, the “specificity ELISA, fold over background” value stood at 24.1 fold over background.

For the molecule B27, the “specificity ELISA, fold over background” value was found to be 39.3 fold over background.

The target of another experiment is T1, SARS-CoV-2 S protein trimer. Nature of the experiment: Carterra SPR, direct capture (DC), S trimer.
The molecule B18 returned a Kd of 47.4 nM.

In turn, B13 registered a Kd of 63.8 nM.

The molecule B14 had a dissociation constant Kd of 17.3 nM.

Turning to B15, binding was put at a Kd of 1.4 nM.

A word on the Kd: it is the free concentration of one partner at which half of the binding sites on the other are occupied at equilibrium, for simple one-to-one binding. A high value points to weaker binding.
